B1: Neuropilin-1 (Rattus norvegicus (Rat)), Q9QWJ9 (parent)
chain: MERGLPLLCATLALALALAGAFRSDKCGGTIKIENPGYLTSPGYPHSYHPSEKCEWLIQAPEPYQRIMINFNPHFDLEDRDCKYDYVEVIDGENEGGRLWGKFCGKIAPSPVVSSGPFLFIKFVSDYETHGAGFSIRYEIFKRGPECSQNYTAPTGVIKSPGFPEKYPNSLECTYIIFAPKMSEIILEFESFDLEQDSNPPGGVFCRYDRLEIWDGFPEVGPHIGRYCGQKTPGRIRSSSGILSMVFYTDSAIAKEGFSANYSVLQSSISEDFKCMEALGMESGEIHSDQITASSQYGTNWSVERSRLNYPENGWTPGEDSYREWIQVDLGLLRFVTAVGTQGAISKETKKKYYVKTYRVDISSNGEDWITLKEGNKAIIFQGNTNPTDVVFGVFPKPLITRFVRIKPASWETGISMRFEVYGCKITDYPCSGMLGMVSGLISDSQITASNQGDRNWMPENIRLVTSRTGWALPPSPHPYINEWLQVDLGDEKIVRGVIIQGGKHRENKVFMRKFKIAYSNNGSDWKMIMDDSKRKAKSFEGNNNYDTPELRAFTPLSTRFIRIYPERATHSGLGLRMELLGCEVEVPTAGPTTPNGNPVDECDDDQANCHSGTGDDFQLTGGTTVLATEKPTIIDSTIQSEFPTYGFNCEFGWGSHKTFCHWEHDSHAQLRWRVLTSKTGPIQDHTGDGNFIYSQADENQKGKVARLVSPVVYSQSSAHCMTFWYHMSGSHVGTLRVKLHYQKPEEYDQLVWMVVGHQGDHWKEGRVLLHKSLKLYQVIFEGEIGKGNLGGIAVDDISINNHIPQEDCAKPTDLDKKNTEIKIDETGSTPGYEEGKGDKNISRKPGNVLKTLDPILITIIAMSALGVLLGAVCGVVLYCACWHNGMSERNLSALENYNFELVDGVKLKKDKLNPQSNYSEA

Variants of: B1
Details: with vegfa_human VEGFA

Variant	effect of a mutation on the interaction
T349A	disrupting interaction strength
S346A	disrupting interaction strength
E348A	disrupting interaction strength

Source: IntAct's records for PubMed 17405859
